Test results from paper PMC11248248, “Dual protection by Bcp1 and Rkm1 ensures incorporation of uL14 into pre-60S ribosomal subunits” (The Journal of Cell Biology, 2024).

T1: GST-Kap121 (S. cerevisiae, UniProt P32337 1-1089)
T1 construct: importin Kap121 (Pse1), S. cerevisiae; also called karyopherin; importin; source: recombinant, purified on glutathione beads; not shown: GST, N-terminal, kept
T1 sequence (looked up): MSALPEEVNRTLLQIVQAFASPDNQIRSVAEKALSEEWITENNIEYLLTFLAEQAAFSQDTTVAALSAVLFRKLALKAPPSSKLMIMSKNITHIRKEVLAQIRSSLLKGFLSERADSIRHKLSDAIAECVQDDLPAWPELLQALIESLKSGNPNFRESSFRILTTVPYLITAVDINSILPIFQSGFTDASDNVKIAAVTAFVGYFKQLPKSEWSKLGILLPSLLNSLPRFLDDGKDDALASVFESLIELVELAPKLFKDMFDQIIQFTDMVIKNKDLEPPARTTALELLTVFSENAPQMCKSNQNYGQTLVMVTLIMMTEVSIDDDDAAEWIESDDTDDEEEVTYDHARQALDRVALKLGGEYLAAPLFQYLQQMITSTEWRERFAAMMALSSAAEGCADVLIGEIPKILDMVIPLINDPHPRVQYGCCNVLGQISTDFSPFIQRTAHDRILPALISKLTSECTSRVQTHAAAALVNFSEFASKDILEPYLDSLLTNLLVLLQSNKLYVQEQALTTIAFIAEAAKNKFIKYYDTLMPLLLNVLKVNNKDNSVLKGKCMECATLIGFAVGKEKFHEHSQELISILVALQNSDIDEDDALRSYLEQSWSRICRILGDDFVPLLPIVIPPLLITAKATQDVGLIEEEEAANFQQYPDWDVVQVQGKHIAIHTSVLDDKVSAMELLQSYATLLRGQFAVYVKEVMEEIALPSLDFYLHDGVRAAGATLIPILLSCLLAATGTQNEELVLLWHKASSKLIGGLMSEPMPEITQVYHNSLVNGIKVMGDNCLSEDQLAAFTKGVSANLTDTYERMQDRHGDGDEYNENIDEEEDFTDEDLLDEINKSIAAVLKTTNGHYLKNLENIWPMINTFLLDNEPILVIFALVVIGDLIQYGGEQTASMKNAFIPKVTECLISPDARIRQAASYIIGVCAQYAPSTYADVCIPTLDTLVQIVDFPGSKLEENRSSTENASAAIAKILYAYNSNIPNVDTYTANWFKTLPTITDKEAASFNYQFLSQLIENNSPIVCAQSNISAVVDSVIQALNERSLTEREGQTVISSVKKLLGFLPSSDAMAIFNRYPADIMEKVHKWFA

T2: GST-Kap123 (S. cerevisiae, UniProt P40069 1-1113)
T2 construct: importin Kap123, S. cerevisiae; also called karyopherin; importin; source: recombinant, purified on glutathione beads; not shown: GST, N-terminal, kept
T2 sequence (looked up): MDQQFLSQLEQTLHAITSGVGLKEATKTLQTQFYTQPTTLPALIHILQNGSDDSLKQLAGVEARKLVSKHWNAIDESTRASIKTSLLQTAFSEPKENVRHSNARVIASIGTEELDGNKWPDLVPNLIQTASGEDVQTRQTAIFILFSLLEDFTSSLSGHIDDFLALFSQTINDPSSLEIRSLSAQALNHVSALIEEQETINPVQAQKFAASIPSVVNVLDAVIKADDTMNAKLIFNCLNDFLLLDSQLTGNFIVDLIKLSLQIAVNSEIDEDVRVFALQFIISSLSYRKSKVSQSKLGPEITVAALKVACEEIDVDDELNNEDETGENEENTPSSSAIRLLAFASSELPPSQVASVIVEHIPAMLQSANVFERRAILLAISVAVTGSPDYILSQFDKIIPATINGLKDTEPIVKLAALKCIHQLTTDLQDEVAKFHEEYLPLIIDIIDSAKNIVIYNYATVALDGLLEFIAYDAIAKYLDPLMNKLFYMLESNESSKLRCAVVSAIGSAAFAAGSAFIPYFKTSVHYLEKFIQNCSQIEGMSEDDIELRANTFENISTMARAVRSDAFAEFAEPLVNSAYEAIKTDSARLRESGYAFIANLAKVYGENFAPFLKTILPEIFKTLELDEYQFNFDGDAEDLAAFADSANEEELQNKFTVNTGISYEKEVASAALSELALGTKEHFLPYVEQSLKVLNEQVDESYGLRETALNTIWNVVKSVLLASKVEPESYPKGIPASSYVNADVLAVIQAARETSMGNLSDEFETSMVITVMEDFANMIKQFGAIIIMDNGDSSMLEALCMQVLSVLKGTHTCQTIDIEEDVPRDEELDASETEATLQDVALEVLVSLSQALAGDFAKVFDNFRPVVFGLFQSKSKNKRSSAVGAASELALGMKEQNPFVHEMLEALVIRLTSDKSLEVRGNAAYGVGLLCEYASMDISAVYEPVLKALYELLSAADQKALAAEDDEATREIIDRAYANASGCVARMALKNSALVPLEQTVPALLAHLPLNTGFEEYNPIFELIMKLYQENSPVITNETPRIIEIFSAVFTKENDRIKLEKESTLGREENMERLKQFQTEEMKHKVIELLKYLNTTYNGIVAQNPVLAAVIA

T3: Rkm1-His6 (S. cerevisiae, UniProt Q08961 1-583)
T3 construct: Rkm1, ribosomal lysine methyltransferase with SET domain, S. cerevisiae; also called recombinant Rkm1; source: E. coli BL21(DE3), purified (Ni-NTA, Superdex 200)
T3 sequence (looked up): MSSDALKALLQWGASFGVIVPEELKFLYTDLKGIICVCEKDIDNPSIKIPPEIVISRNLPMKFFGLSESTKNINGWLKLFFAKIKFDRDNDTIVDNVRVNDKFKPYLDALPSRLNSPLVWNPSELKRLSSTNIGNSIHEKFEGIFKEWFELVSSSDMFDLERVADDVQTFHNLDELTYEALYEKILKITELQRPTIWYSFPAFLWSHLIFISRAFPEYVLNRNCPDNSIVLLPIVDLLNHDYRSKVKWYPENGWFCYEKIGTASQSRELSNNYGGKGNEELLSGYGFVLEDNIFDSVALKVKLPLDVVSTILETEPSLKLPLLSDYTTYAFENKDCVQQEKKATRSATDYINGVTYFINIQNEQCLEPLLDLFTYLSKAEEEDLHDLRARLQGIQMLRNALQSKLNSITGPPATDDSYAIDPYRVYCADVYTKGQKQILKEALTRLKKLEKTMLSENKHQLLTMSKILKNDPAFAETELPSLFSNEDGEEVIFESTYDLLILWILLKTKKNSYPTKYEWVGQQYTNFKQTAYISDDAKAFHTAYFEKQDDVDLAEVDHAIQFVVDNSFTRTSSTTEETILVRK

B1: Bcp1-His6 (natural protein, S. cerevisiae, UniProt Q06338 1-283, looked up)
chain: MVQAIKLNDLKNRKRKNVEEENGSDESEIDISSTDSENEEEQNGEEEIVNIDFDFFGGNPEVDFHALKNLLRQLFGPQESTRIQLSSLADLILGSPTTTIKTDGKESDPYCFLSFVDFKANHLSDYVKYLQKVDMRLSTFFKTMIDSGNKNCALVLSERLINMPPEVVPPLYKITLEDVATALGDDKHYDFYIIVTRKYEVNFDTDDDTDSGKRNKNKDERSKKRVKADEVDYFHEEDRFFEKYAKIHFESEAKKGVISSYMILDHEGLVKSIDELETEISTW
notes: Bcp1, S. cerevisiae; also called full-length Bcp1; recombinant Bcp1

Experiments:
Conditions in all cases: both partners purified
GST-Kap121 [1] = target: T1, GST-Kap121; test: pull-down; GST-Kap121 or GST-Kap123 on glutathione beads, incubated with recombinant proteins at 4°C for 1 h, three washes; Coomassie staining and western blotting
Bcp1-His6 [2] = target: B1; test: pull-down; Bcp1-His6 in the supernatants of the methylation reactions (Fig. 6 A, lanes 7 and 8) purified on Ni-NTA beads; bound uL14 and its methylation by western blotting
GST-Rkm1/uL14 complex = target: T4, GST-Rkm1/uL14 complex (S. cerevisiae, UniProt Q08961 1-583; P0CX41 1-137); test: pull-down; purified Bcp1 or bcp1∆N20 added to the GST-Rkm1/uL14 complex immobilised on glutathione beads, with or without 0.5 mM SAM, 30°C, 80 min; beads and supernatants analysed
T4 construct: Rkm1, S. cerevisiae; as the chain of m12; uL14 (Rpl23), S. cerevisiae; as the chain of m2; also called Rkm1/uL14 complex on glutathione beads; source: recombinant, purified with glutathione beads

GST-Kap123 = target: T2, GST-Kap123; test: pull-down; GST-Kap121 or GST-Kap123 on glutathione beads, incubated with recombinant proteins at 4°C for 1 h, three washes; Coomassie staining and western blotting
Bcp1-His6 [3] = target: B1; test: SEC; HiLoad 16/600 Superdex 200; Bcp1, uL14 and Rkm1 mixed; ratio from band intensity in SDS-PAGE and molecular weight estimated from SEC
Rkm1-His6 = target: T3, Rkm1-His6; test: as above
GST-Kap121 [4] = target: T1, GST-Kap121; test: pull-down; release test: GST-Kap in complex with cargo immobilised on glutathione beads, purified Bcp1 or bcp1ΔN added for another hour at 4°C; what is left on the beads or in the supernatant by western blotting

T4 sequence (P0CX41 whole entry, one chain of several): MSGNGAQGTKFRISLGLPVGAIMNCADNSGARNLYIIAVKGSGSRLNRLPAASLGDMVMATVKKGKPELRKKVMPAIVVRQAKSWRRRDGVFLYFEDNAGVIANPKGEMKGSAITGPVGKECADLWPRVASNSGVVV

Binder	binding result (GST-Kap121 [1])	binding result (GST-Rkm1/uL14 complex)	binding result (GST-Kap123)	other results
bcp1ΔN10 (domain or fragment, S. cerevisiae, UniProt Q06338 11-283, looked up, Bcp1, S. cerevisiae, truncated by 10 amino acids from the N terminus; also called bcp1(∆N10); bcp1∆N10; source: E. coli, purified) KNRKRKNVEEENGSDESEIDISSTDSENEEEQNGEEEIVNIDFDFFGGNPEVDFHALKNLLRQLFGPQESTRIQLSSLADLILGSPTTTIKTDGKESDPYCFLSFVDFKANHLSDYVKYLQKVDMRLSTFFKTMIDSGNKNCALVLSERLINMPPEVVPPLYKITLEDVATALGDDKHYDFYIIVTRKYEVNFDTDDDTDSGKRNKNKDERSKKRVKADEVDYFHEEDRFFEKYAKIHFESEAKKGVISSYMILDHEGLVKSIDELETEISTW	binds	–	–	–
methylated uL14 (natural protein, methylated at K106 and K110, uL14 (Rpl23), S. cerevisiae; Methylation stoichiometry of K106 and K110 ~98.6% by AspN digestion; also called uL14 methylated in vitro by Rkm1 with SAM; source: recombinant uL14 methylated on GST-Rkm1 beads with 0.5 mM SAM, 30°C, 80 min) not shown	–	–	–	binding result (Bcp1-His6 [2]): binds
bcp1ΔN20 (domain or fragment, S. cerevisiae, UniProt Q06338 21-283, looked up, Bcp1, S. cerevisiae, truncated by 20 amino acids from the N terminus; also called bcp1(∆N20); Bcp1(∆N20); source: E. coli, purified) ENGSDESEIDISSTDSENEEEQNGEEEIVNIDFDFFGGNPEVDFHALKNLLRQLFGPQESTRIQLSSLADLILGSPTTTIKTDGKESDPYCFLSFVDFKANHLSDYVKYLQKVDMRLSTFFKTMIDSGNKNCALVLSERLINMPPEVVPPLYKITLEDVATALGDDKHYDFYIIVTRKYEVNFDTDDDTDSGKRNKNKDERSKKRVKADEVDYFHEEDRFFEKYAKIHFESEAKKGVISSYMILDHEGLVKSIDELETEISTW	–	binds	–	–
Rkm1/uL14 complex (complex, Rkm1, S. cerevisiae; uL14 (Rpl23), S. cerevisiae; as the chain of m2; also called uL14/Rkm1 complex; source: E. coli, recombinant, purified) chain 1: MSSDALKALLQWGASFGVIVPEELKFLYTDLKGIICVCEKDIDNPSIKIPPEIVISRNLPMKFFGLSESTKNINGWLKLFFAKIKFDRDNDTIVDNVRVNDKFKPYLDALPSRLNSPLVWNPSELKRLSSTNIGNSIHEKFEGIFKEWFELVSSSDMFDLERVADDVQTFHNLDELTYEALYEKILKITELQRPTIWYSFPAFLWSHLIFISRAFPEYVLNRNCPDNSIVLLPIVDLLNHDYRSKVKWYPENGWFCYEKIGTASQSRELSNNYGGKGNEELLSGYGFVLEDNIFDSVALKVKLPLDVVSTILETEPSLKLPLLSDYTTYAFENKDCVQQEKKATRSATDYINGVTYFINIQNEQCLEPLLDLFTYLSKAEEEDLHDLRARLQGIQMLRNALQSKLNSITGPPATDDSYAIDPYRVYCADVYTKGQKQILKEALTRLKKLEKTMLSENKHQLLTMSKILKNDPAFAETELPSLFSNEDGEEVIFESTYDLLILWILLKTKKNSYPTKYEWVGQQYTNFKQTAYISDDAKAFHTAYFEKQDDVDLAEVDHAIQFVVDNSFTRTSSTTEETILVRK chain 2: not shown	binds	–	binds	–
B1	binds	binds	–	–
uL14 (recombinant) (natural protein, ribosomal protein uL14 (Rpl23), S. cerevisiae, encoded by RPL23A and RPL23B; No tag is named for recombinant uL14; for the Bcp1/uL14 complex its bacterial pellet was lysed together with that of Bcp1-His6; also called Rpl23; source: E. coli BL21(DE3), purified) not shown	–	–	binds	stoichiometry N (Bcp1-His6 [3]): ~1; stoichiometry N (Rkm1-His6): ~1; binding result (GST-Kap121 [4]): binds
